According to patent US6428967:

How the values were obtained:
[1] = target: wild type human LDL receptor on CHO cells (human) (UniProt P01130); assay: 125I-LDL surface binding on CHO cells expressing the wild type human LDL receptor, with or without Dab1
[2] = target: wild type human LDL receptor on CHO cells (human) (UniProt P01130); assay: cell-based or functional assay

Sequence of wild type human LDL receptor on CHO cells (human) (P01130 22-860): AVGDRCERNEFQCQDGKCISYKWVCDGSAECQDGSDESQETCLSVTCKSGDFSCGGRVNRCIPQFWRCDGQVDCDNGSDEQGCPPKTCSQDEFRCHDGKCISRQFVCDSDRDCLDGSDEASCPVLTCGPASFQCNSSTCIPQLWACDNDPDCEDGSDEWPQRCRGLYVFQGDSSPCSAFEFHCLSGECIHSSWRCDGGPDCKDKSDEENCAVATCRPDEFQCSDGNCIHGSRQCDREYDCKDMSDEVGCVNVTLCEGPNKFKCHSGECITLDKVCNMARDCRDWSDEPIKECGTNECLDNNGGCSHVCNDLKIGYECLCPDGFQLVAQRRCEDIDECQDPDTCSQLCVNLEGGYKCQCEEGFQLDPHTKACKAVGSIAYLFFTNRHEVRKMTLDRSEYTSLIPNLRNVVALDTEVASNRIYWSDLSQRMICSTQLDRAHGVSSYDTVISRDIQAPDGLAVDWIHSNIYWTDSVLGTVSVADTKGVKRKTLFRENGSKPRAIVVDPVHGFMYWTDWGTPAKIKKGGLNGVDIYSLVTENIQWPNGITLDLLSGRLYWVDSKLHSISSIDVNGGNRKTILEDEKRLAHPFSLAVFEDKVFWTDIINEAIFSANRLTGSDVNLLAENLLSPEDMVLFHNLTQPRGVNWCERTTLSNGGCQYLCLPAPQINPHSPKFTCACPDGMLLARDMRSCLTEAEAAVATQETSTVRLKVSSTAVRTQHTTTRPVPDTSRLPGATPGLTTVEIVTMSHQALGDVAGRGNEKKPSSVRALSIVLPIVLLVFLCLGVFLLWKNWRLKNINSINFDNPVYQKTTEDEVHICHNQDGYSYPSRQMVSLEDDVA

fold of LDL bound on the cell surface, cells with Dab1 against cells without Dab1 [1] [times] | LDL bound on the cell surface (125I labeled human LDL) [2] [times] | Substance
2 | – | 125I labeled human LDL, P04114 28-4563
– | 2 | Dab1 expressed in CHO cells from pcDNA3.1/ZEO DAB555 (from UniProt P97318 1-555)
